Data taken from US20190250145A1.

Tests used:
[1] = target: I-IIC-CFluc (carboxyl terminal portion of luciferase attached to I-IIC domain of CaV1.2) [luciferase: P08659]; assay: split firefly luciferase complementation in HEK cells
[2] = target: endogenous β-subunit of mouse heart (CaVβ) (mouse) (UniProt Q8CC27); assay: cell-based or functional assay
[3] = target: GKC-CFluc (carboxyl terminal portion of luciferase attached to GKC) [luciferase: P08659]; assay: split firefly luciferase complementation in HEK cells
GKC-CFluc (carboxyl terminal portion of luciferase attached to GKC) [luciferase: P08659], sequence (P08659 398-550): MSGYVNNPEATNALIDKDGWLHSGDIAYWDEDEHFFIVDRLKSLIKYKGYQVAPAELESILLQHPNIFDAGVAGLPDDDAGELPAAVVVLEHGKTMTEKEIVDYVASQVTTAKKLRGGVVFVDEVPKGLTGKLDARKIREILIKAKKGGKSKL

[4] = target: endogenous β subunits of guinea pig ventricular cardiomyocytes (guinea pig); assay: cell-based or functional assay

CaVB-NFluc (amino terminal portion of luciferase attached to CaVB), sequence (P08659 2-416): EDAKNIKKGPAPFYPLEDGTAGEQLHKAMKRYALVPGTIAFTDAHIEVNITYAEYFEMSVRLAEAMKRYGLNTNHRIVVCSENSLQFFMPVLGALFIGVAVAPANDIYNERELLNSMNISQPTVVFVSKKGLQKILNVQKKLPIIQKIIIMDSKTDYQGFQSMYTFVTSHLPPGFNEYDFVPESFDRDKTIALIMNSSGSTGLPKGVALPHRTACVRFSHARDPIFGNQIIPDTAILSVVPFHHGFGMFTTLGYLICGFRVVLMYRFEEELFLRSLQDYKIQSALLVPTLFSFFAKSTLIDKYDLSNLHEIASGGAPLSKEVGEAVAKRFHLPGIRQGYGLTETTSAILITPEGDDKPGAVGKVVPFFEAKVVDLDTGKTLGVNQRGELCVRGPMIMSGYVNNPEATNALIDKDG
NFluc-NSH3 (amino terminal portion of luciferase attached to NSH3), sequence (P08659 1-416): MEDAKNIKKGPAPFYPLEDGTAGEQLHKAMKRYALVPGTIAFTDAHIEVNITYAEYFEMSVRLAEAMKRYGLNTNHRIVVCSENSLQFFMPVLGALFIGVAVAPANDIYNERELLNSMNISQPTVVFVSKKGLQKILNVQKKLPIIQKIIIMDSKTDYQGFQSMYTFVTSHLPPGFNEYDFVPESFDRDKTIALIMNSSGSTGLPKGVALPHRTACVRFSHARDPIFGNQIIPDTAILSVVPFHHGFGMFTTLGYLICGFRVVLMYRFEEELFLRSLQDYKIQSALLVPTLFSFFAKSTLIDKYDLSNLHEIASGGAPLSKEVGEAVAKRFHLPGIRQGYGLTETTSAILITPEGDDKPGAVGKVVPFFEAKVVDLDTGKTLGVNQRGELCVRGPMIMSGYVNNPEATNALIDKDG
I-IIC-CFluc (carboxyl terminal portion of luciferase attached to I-IIC domain of CaV1.2) [luciferase: P08659], sequence (P08659 398-550): as the sequence (P08659 398-550) above

Substance: CaVB-NFluc (amino terminal portion of luciferase attached to CaVB) (from UniProt P08659 2-416)
- bioluminescence signal, fold over negative control [1]: 15 fold

Substance: N-terminal 3×FLAG-tagged dihydropyridine (DHP)-resistant (T1066Y/Q1070M) AID-mutant rabbit α1C (from UniProt P15381 1-2171)
- increase in cardiac contractility by 200 nM isoproterenol (Langendorff hearts, nisoldipine present) [2]: 1.2 fold
- increase in contractility in response to isoproterenol (isolated hearts, nisoldipine present) [2]: 0 to 25%
- increase in fractional shortening by isoproterenol (cardiomyocytes, nisoldipine present) [2]: 25%

Substance: NFluc-NSH3 (amino terminal portion of luciferase attached to NSH3) (from UniProt P08659 1-416)
- bioluminescence, fold over negative control cells [3]: 70 fold

Substance: YFP-tagged mutant (YWI/AAA) AID peptide
- increase in whole-cell current amplitude by 1 µM forskolin [4]: 4 to 5 fold

Substance: pseudo-wild-type (pWT) α1C: transgenic FLAG-tagged DHP-resistant α1C subunit with wild-type AID (from UniProt P15381 1-2171)
- increase in cardiac contractility by 200 nM isoproterenol (Langendorff hearts, nisoldipine present) [2]: 3.3 fold
- increase in fractional shortening by isoproterenol (cardiomyocytes, nisoldipine present) [2]: 100%
- increase of Ca2+ current by forskolin [2]: 1.8 fold
- increase of nisoldipine-insensitive current by 200 nM isoproterenol [2]: 1.9 fold
- shift of Vmid in the hyperpolarizing direction by 200 nM isoproterenol [2]: 4.4 mV
